Measured values as given in US20220089765A1, “CD31 COMPETITORS AND USES THEREOF” (ENCEFA, priority 2019, published 2022).

What was measured:
[1] = test system: human peripheral blood mononuclear cells (PBMCs); experiment: IL-10 release from human PBMCs in vitro (ELISA); type: cell-based; conditions: PBMCs from 3 healthy donors; 10 μg/ml; LPS 500 ng/mL and interferon-γ 1B 100 ng/mL; 24 hours
Method: 3 healthy volunteers (Donor 1: Donor 2: Donor 3) served as blood donors. Venous blood (5 mL) was collected into heparinized tubes and immediately processed. Briefly, blood was diluted 1/1 in pre-warmed RPMI 1640 medium. PBMCs were isolated using gradient centrifugation in Ficoll solution (Sigma; 300×g, 30 min). Isolated PBMCs were re-suspended in 1 volume of pre-warmed RPMI 1640 medium and centrifuged again (300×g, 30 min). PBMCs were re-suspended in RPMI 1640 medium supplemented with 10% human serum (Sigma-Aldrich) at a concentration of 10^7 cells per mL. Cells were seeded in 96 well microplate (100 μL per well). Test compounds (10 μg/ml), LPS (500 ng/mL) and interferon-γ 1B (100 ng/mL) were added to PBMCs culture immediately after plating. After 24 hours, cell culture supernatants were collected and frozen at −80° C. for further processing.
IL-10 levels in cell culture supernatants were assayed using an ELISA human IL-10 kit (Ozyme®) according to the indications for use specified by the manufacturer.

[2] = test system: dopaminergic neurons of the right substantia nigra pars compacta; experiment: 6-OHDA mouse model, number of DA (TH+) neurons; type: in vivo, mice
Method: We aimed at determining whether B08 or D06 anti-CD38 antibodies were neuroprotective in vivo against neurodegeneration induced by oxidative stress. Mouse were administered with 6-hydroxydopamine (6-OHDA) in the right striatum. Since 6-OHDA is an analogue of dopamine, it is transported in dopaminergic neurons through the dopamine transporter, resulting in a specific degeneration and loss of dopaminergic neurons of the right substantia nigra pars compacta. It has been extensively used as a test system for novel symptomatic agents and for assessment of neuroprotective and neurorepair strategies (Galindo et al., 2014. In Kostrzewa (Ed.), Handbook of neurotoxicity (1st Ed., pp. 639-651). New York: Springer-Verlag). Since 6-OHDA is injected unilaterally in the right striatum, left striatum remains unaffected and each mouse is its own control.
Two in vivo mouse models were used: the 6-OHDA mouse model and the MPTP mouse model. For the 6-OHDA mouse model, the intoxication protocol was based on the unilateral stereotaxic intrastriatal injection of 6-OHDA in the right striatum. Intracerebral or intravenous injections of treatments were made either the day before the surgical stereotaxic procedure, concomitantly with 6-OHDA during the surgical stereotaxic procedure, or two days after 6-OHDA injection. Animals were sacrificed 8 days after the surgical stereotaxic procedure.
For unilateral 6-OHDA mouse model, animals were anesthetized using Chloral hydrate (400 mg/kg, i.p.) and placed into a stereotactic frame adapted to mice. The injection was performed using a Hamilton syringe at the following coordinates: AP: […], ML: […], DV: […] (corresponding to the atlas of Franklin and Paxinos, 1997). A total volume of 2.5 μL containing or not 5 μg of 6-OHDA diluted in PBS in the presence or the absence of test treatments was injected. The needle was left in place for 10 min after the injection before retraction.
Mice were sacrificed by cervical dislocation, and beheaded to collect brain and blood samples. The brain was fixed in a paraformaldehyde solution (4%) during 1 day before being soaked in sucrose (30%) during 2 days and then froze at −80° C. for further analysis.
Each brain was sliced using a freezing microtome at −30° C. The thickness of each slice was 20 μm. The slicing was done around the substantia nigra (80 slices from slice 51 to 63 according to Allen Mouse Brain).
Slices were then washed out in PBS and incubated with anti-Tyrosine Hydroxylase to stain dopaminergic neurons (Abcam®) during 2 days, at 4° C., with agitation. Slices were incubated with corresponding secondary antibody in the presence of DAPI (Sigma Aldrich®) to stain cell's nuclei during 2 hours at room temperature, and mounted on gelatin-coated slides.
The slices were imaged using a Nikon TE2000 U equipped with a Hamamatsu ORCE-ER camera or with a Zeiss Axio Vert.A1 equipped with an axiocam 503 mono camera. Image analysis was done using Image J software or Zen (Zeiss®).

[3] = test system: Experimental Autoimmune Encephalomyelitis (EAE) mouse model; experiment: EAE mouse model of multiple sclerosis, clinical score; type: in vivo, mice; conditions: 15 mg/kg iv at symptom onset (10 days after MOG injection) and at day 20
Excerpt: Multiple sclerosis (MS) is a progressive inflammatory and demyelinating disease of the human central nervous system (CNS) in which an important role for the immune system in the pathogenesis of the disease is suspected (Lassmann, 2008. J Neurol Sci. 274(1-2):45-7). EAE is an induced disease in mice that affects the central nervous system and constitutes a model for human MS. After a subcutaneous injection of an emulsion with a Complete Freund's Adjuvant (CFA) mixed with oligodendrocyte membrane proteins like myelin oligodendrocyte glycoprotein (MOG), an immune response starts in the periphery and, within 2 weeks, causes inflammation in the CNS. In the same time, we can observe, a progressive ascending paralysis (tail to hindlimb to forelimb). To determine whether B08 anti-CD38 antibody could have beneficial effect in this disease, we injected this antibody (15 mg/kg at symptom onset (10 days after MOG injection) and at day 20).
Animals were anesthetized via inhalation with isoflurane (15 min). Mouse were immunized by subcutaneous injection of an emulsion containing 100 μg MOG peptide 35-55 in Complete Freund's Adjuvant and 500 μg HKMT (Heat-killed Mycobacterium tuberculosis) on day 0. Two hours later, animals received an intraperitoneal injection of 500 ng of pertussis toxin on day 0 and day 2. […]
After immunization, animals were daily monitored for weight and clinical symptoms.

[4] = test system: Dextran Sulfate Sodium (DSS)-induced colitis mouse model; experiment: DSS-induced colitis mouse model, colon length; type: in vivo, mice; conditions: 15 mg/kg iv when DSS treatment began; 3% DSS for 5 days
Excerpt: Administration of DSS causes human ulcerative colitis-like pathologies due to its toxicity to colonic epithelial cells, which results in compromised mucosal barrier function. Clinical observations similar to human pathologies, such as weight loss, diarrhea and occult blood in stool, are commonly observed in the DSS model. Moreover, diminution of the colon's length is characteristic of this model.
Experimental colitis was induced in mice by giving drinking water ad libitum containing 3% (w/v) DSS for 5 days, while control mice received tap water only. Test compounds were intravenously administered (15 mg/kg) when DSS treatment began. Mice were sacrificed 9 days after the beginning of DSS treatment.

B1: Clone B08: anti-human CD38 antibody, HCVR SEQ ID NO: 33 and LCVR SEQ ID NO: 39 (antibody, V domains shown)
VH: EVQLVESGGSLVKPGGSLRLSCAASGFTFSNYYMNWVRQAPGKGLEWISSISGSSRSIYYADFVKGRFTISRDNAKNSLYLQMNSLRAEDTAVYYCVRSSDDYYYDYGMDVWGRGTLVTVSS
VL: QSVLTQPASVSGSPGQSITISCAGTSSDVGGSYSVSWYQQHPGKAPKLMIYDDSNRPSGVSNRFSGSKSGNTASLTISGLQAEDEADYYCSSYTDYSTRVFGGGTKL
modifications: HCVR B08; LCVR B08
[1]
  IL-10 release: statistically significantly increased
[2]; 0.1 mg/kg injected intracerebrally concomitantly with 6-OHDA
  protection of dopaminergic neurons of the right substantia nigra pars compacta: statistically significantly protected
[2]; 15 mg/kg iv one day before 6-OHDA injection
  neuroprotective effect in 6-OHDA model: neuroprotective effect was also observed
[2]; 15 mg/kg iv two days after 6-OHDA injection
  neuroprotective activity in 6-OHDA model when degeneration is ongoing: strong neuroprotective activity
[3]
  clinical score compared with PBS-injected mice: significantly reduced
[4]
  diminution of the colon's length: statistically significantly repressed
